Source: publication PMC5600424, “An efficient method for the preparation of preferentially heterodimerized recombinant S100A8/A9 coexpressed in Escherichia coli” (Biochemistry and Biophysics Reports, 2016)

Key:
Assay in all cases: SEC; SEC-HPLC (COSMOSIL 5Diol-300-II), 50 mM sodium phosphate buffer pH 6.0, 1.0 mL/min, 30 ug of cation-exchange peak fraction injected; mass estimated with a gel filtration calibration kit
[1] = molecular target: T1, human S100A9 (human), P06702; conditions: remark: other sources report otherwise
T1 chain: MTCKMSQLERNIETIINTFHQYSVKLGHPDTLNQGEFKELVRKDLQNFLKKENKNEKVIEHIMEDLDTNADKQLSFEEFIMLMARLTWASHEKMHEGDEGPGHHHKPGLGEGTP

[2] = molecular target: the molecule itself
[3] = molecular target: T2, human S100A9 (human, UniProt P06702 1-114); conditions: both partners purified
T2 construct: human S100A9, UniProt P06702; codon-optimised synthetic gene in pET21a (NdeI/BamHI), expressed without any tags; also called MRP-14
T2 sequence (looked up): T1 chain

B1: human S100A9, P06702 1-114 (natural protein)
chain: T1 chain
stoichiometry N [1]: 2

B2: S100A8/A9 heterodimer (complex, human)
chain 1: MLTELEKALNSIIDVYHKYSLIKGNFHAVYRDDLKKLLETECPQYIRKKGADVWFKELDINTDGAVNFQEFLILVIKMGVAAHKKSHEESHKE
chain 2: T1 chain
notes: human S100A8, UniProt P05109; as the chain of m1; no tags; human S100A9, UniProt P06702; as the chain of m2; Heterodimer formed during coexpression; used here only for its own association to a higher complex; also called MRP-8/14; calprotectin; source: E. coli T7 Express, coexpressed from pET21-S100A8-S100A9, purified (cation-exchange chromatography, Peak 1)
binding result [2]: binds

B3: human S100A8 (natural protein, UniProt P05109 1-93, looked up)
chain: B2 chain 1
notes: human S100A8, UniProt P05109; codon-optimised synthetic gene in pET21a (NdeI/BamHI), expressed without any tags; also called MRP-8
binding result [3]: binds
stoichiometry N [2]: 2
